KUPTAKE, net M6PR mediated uptake by SH-SY5Y human neuroblastoma cells (4MUbetaGlc activity in lysates, hyperbolic fit) data for 1 substance are collected here from patent US20220125892A1.

In this assay the target is mannose-6-phosphate receptor on human neuroblastoma cells (SH-SY5Y) (human). The assay is described as follows: cell-based or functional assay.

“OxyGCase (uncapped and demannosylated recombinant human glucocerebrosidase variant produced in Yarrowia lipolytica) (enzyme)” came in with a KUPTAKE, net M6PR mediated uptake by SH-SY5Y human neuroblastoma cells (4MUbetaGlc activity in lysates, hyperbolic fit) of 1.9 nM.
